According to patent publication US20240228570A9, “PLATFORM TECHNOLOGY FOR TREATMENT OF INFLAMMATORY, IMMUNOLOGICAL AND/OR AUTOIMMUNOLOGICAL DISEASES” (ellennbe GmbH, priority 2021, published 2024):

System: inflammatory disease, immunological disease and/or autoimmunological disease
Experiment: Treatment of patients: condition as stated by patient and physician (pain, fatigue, daily life, duration of effect, relapses)
Type: in vivo, human
Details: Patient 11, ankylosing spondylitis; within half a year the biologics lost their effect
Description: All patients treated in the following Inventive Examples, Reference Examples and Comparative Examples were selected solely based on their diagnosis without performing a preselection in view of other parameters.
Annotation to the Tables 8A and B and 9 to 10: Patients were usually examined and treated in the same session. The success of the treatment or the effect thereof was then determined in the following session, usually one week later, and the next treatment performed as indicated in the tables.

B1: Cimzia®: biologic, certolizumab pegol (antibody, chains of the INN, looked up, V domains shown)
VH: EVQLVESGGGLVQPGGSLRLSCAASGYVFTDYGMNWVRQAPGKGLEWMGWINTYIGEPIYADSVKGRFTFSLDTSKSTAYLQMNSLRAEDTAVYYCARGYRSYAMDYWGQGTLVTVSS
VL: DIQMTQSPSSLSASVGDRVTITCKASQNVGTNVAWYQQKPGKAPKALIYSASFLYSGVPYRFSGSGSGTDFTLTISSLQPEDFATYYCQQYNIYPLTFGQGTKVEIK
modifications: Fab' PEG (pegol)
effect of earlier treatment with biologics (patient's report): had little effect from the outset
